Broadly, the koff is the first-order rate constant of dissociation. Broadly, the kon is the second-order rate constant of association. The low end stands for slower complex formation, the high end for faster complex formation.

The record followed here is patent US20110312505A1 (University of Texas, published 2011).

Experiment [1] addresses T1, human complement protein C1s (human, UniProt P09871 16-688).
T1 construct: Purified protein, bought; coated on ELISA plates, amine-coupled to a CM5 chip, or native in human serum (immunoprecipitation); also called human complement serine protease
T1 sequence (looked up): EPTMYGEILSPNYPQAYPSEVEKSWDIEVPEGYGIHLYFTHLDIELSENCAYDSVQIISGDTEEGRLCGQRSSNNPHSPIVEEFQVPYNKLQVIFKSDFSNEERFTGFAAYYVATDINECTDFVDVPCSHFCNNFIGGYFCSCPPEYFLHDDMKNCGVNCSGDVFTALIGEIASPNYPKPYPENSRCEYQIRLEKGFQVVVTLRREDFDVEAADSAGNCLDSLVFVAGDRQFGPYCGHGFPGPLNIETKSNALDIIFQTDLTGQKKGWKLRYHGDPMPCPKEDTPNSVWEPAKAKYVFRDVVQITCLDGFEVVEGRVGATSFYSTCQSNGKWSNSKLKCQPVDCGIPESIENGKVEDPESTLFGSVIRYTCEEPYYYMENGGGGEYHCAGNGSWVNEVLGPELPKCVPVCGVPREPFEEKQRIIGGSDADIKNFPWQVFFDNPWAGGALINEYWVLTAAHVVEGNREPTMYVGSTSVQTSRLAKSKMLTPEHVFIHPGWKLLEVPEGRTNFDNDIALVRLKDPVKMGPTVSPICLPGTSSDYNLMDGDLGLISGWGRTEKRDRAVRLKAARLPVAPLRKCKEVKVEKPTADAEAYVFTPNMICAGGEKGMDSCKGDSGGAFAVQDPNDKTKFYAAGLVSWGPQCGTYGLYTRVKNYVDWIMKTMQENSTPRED
As to the kind of experiment: ELISA, E. coli whole cell lysate with scFv from combinatorial library. On the technique in general: ELISA stands for enzyme-linked immunosorbent assay.

The target of experiment [2] is T1, human complement protein C1s. Description: ELISA, antigen-coated plate, titration of purified IgG, anti-human Fc-HRP. The protocol: (§1) Purified IgGs were added to the plate at various concentrations for 1.5 h and washed with PBS/0.05% Tween-20. A polyclonal antibody of goat anti-human Fc region conjugated HRP was used for detection and developed with TMB substrate and stopped with 2N H₂SO₄. The absorbance was measured at 450 nm with a 96 well spectrophotometer. A titration curve of purified IgGs was used to determine an approximate IC50 for binding (Table 8).

The target is the same in experiment [3]. As to the kind of experiment: SPR (BIAcore 3000), C1s amine-coupled to CM5 chip, antibody injected, bivalent model. The protocol:
FIGS. 13A-13B. Kinetic binding analysis of purified anti-C1s IgGs by Surface Plasmon Resonance (Biacore). (FIG. 13A) Anti-C1s 2.1L-2.1HB was injected onto a chip with immobilized C1s at 25 nM, 50 nM, 100 nM or 200 nM and (FIG. 13B) As above for anti-C1s 2.3L-2.2H injected at 2.625 nM, 5.25 nM, 10.5 nM or 21 nM.
(§2) Surface Plasmon Resonance (Biacore) C1s was covalently immobilized on a CM5 chip (GE healthcare, NJ) at a level of approximately 200 response units via standard amine coupling chemistry as described in the manufacturer's protocol. BSA was similarly coupled for baseline correction. All kinetic analyses were performed at 25° C. in HBS-EP (10 mM HEPES, 150 mM NaCl, 50 μM EDTA, 0.005% P-20, pH 7.4) on a BIAcore 3000 (GE healthcare, NJ). Antibodies were injected over immobilized antigen at a flow rate of 50 μl/min or 100 μl/min and the chip was regenerated with a single 10s injection of 20 mM NaOH. Each sensogram was run in duplicate. Kinetic and equilibrium constants were determined by global fitting to a bivalent model using BIAevaluation software (GE healthcare, NJ).

Experiment [4] has the same target. Description: SPR (Biacore), IgG on immobilized C1s.
Description: Antibodies were recombinantly expressed and purified as monomeric scFv fragments in E. coli and as full-length IgG antibodies in HEK 293F cells. […] Furthermore, the antibodies were suitable for functional assays, such as sandwich ELISA and immunoprecipitation of C1s from human serum (FIGS. 14-15).
as §2

Experiment [5] deals with T2, human B cell regulator of IgH transcription (BRIGHT) (human, UniProt Q99856 1-593, limits assumed).
T2 construct: Recombinant, made in bacteria
T2 sequence (looked up): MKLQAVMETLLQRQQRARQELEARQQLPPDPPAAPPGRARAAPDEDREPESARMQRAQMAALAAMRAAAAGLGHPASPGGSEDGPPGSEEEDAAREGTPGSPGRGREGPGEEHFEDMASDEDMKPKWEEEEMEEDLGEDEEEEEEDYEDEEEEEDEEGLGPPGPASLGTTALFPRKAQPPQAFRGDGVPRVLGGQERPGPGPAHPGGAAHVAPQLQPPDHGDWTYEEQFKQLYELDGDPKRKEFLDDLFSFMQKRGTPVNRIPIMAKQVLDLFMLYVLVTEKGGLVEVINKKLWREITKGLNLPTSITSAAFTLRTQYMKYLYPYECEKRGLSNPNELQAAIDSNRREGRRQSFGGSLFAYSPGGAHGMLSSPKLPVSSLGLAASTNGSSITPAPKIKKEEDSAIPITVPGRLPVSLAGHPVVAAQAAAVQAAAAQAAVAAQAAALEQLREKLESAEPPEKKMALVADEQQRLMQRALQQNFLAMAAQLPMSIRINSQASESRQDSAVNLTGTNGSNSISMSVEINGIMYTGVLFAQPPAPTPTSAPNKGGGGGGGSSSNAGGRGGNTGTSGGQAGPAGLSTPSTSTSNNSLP
Description: ELISA, antigen-coated plate, titration of purified IgG, anti-human Fc-HRP. How it is done:
as §1

B1: anti-C1s scFv 2.2L-2.2H (scFv)
scFv: DIVMTQSPASLAVSLGQRATISCRASESVDSYGNSFMHWYQQKPGQPPKLLIYRASNLESGIPARFSGSGSRTDFTLTINPVEADDVTTYYCQQSNEDPWTFGGGTKLEIKGGGGSGGGGSGGGGSGGGGSEVKLVESGGGFVKPGGSLKLSCAASGFTFSTYGMSWVRQTPEKRLEWVASISAGGTTYYSDSVKGRFTISRDNARNILYLQMSSLRSEDTAMYYCARWLLLAYWGQGTLVTSSA
notes: scFv in E. coli whole cell lysate; also called C1s-2 2L-2H
For B1, the “ELISA Signal (OD450 on antigen-coated wells relative to BSA-coated wells)” value in experiment [1] amounted to 3.1 fold over BSA wells.

B2: anti-C1s scFv 2.3L-2.3H (scFv)
scFv: DIVMTQSPLTLTVTIGQPASISCKSSQSLLDSDGKTYLNWLLQRPGQSPKRLIYLVSKLDSGVPDRFTGSGSGTEFTLKTSRVEAEDLGVYYCWQGTHFPHFGGGTKLEIKGGGGSGGGGSGGGGSGGGGSQVQLQQSGTVLARPGASVKMSCKASGYTFTSYWMHWVKQRPGQGLEWIGAIYPGNSDTSYNQKFKGKAKLTAVTSTSTAYMELSSLTNEDSAVYYCTRSDGYYYFDYWGQGTTLTVSSA
notes: scFv in E. coli whole cell lysate; also called C1s-2 3L-3H
Regarding B2, in experiment [1], the “ELISA Signal (OD450 on antigen-coated wells relative to BSA-coated wells)” value was found to be 8.8 fold over BSA wells.

B3: anti-C1s IgG 2.3L-2.3H (antibody, V domains shown)
VH: QVQLQQSGTVLARPGASVKMSCKASGYTFTSYWMHWVKQRPGQGLEWIGAIYPGNSDTSYNQKFKGKAKLTAVTSTSTAYMELSSLTNEDSAVYYCTRSDGYYYFDYWGQGTTLTVSS
VL: not shown
notes: Full-length IgG with human kappa and human IgG1 constant regions (pMAZ vectors, HEK293-F); also called C1s 2.3L-2.3H
Take B3: in experiment [2], the “EC50 (half-maximal binding)” value came out at 100 nM.

B4: anti-C1s IgG 2.1L-2.1H (antibody, V domains shown)
VH: QVQLQQSGAELARPGASVKMSCKASGYTFTSYTMHWVKQRPGQGLEWIGYINPSSGYTNYNQKFKDKATLTADKSSSTANMQLSSLTSEDSAVYYCARSDRYDGYFDYWGQGTTLTVSS
VL: DVLMTQTPLSLPVSLGDQASISCRSSQSIVHSNGDTYLEWYLQKPGQSPKLLVYKLSNRFSGVPDRFSGSGSGTDFTLKISRVEAEDLGVYYCFQGSHVPLTFGAGTKLEIK
notes: also called C1s 2.1L-2.1H
Turning to B4, the “EC50 (half-maximal binding)” value in experiment [2] amounted to 50 nM.

B5: anti-C1s IgG 2.3L-2.2H (antibody, V domains shown)
VH: EVKLVESGGGFVKPGGSLKLSCAASGFTFSTYGMSWVRQTPEKRLEWVASISAGGTTYYSDSVKGRFTISRDNARNILYLQMSSLRSEDTAMYYCARWLLLAYWGQGTLVTSSA
VL: not shown
notes: Full-length IgG with human kappa and human IgG1 constant regions (pMAZ vectors, HEK293-F); also called C1s 2.3L-2.2H; 2.3L-2.2H (IgG)
Take B5: in experiment [2], the “EC50 (half-maximal binding)” value was found to be 0.43 nM. For the same molecule, in experiment [3], the Kd was determined as 0.43 nM, the off-rate (koff) stood at 0.00019 s⁻¹ and the kon turned out to be 450000 M⁻¹ s⁻¹.

B6: anti-C1s IgG 2.2L-2.2H (antibody, V domains shown)
VH: B5 VH
VL: DIVMTQSPASLAVSLGQRATISCRASESVDSYGNSFMHWYQQKPGQPPKLLIYRASNLESGIPARFSGSGSRTDFTLTINPVEADDVTTYYCQQSNEDPWTFGGGTKLEIK
notes: Full-length IgG made in HEK 293F cells; also called C1s 2.2L with 2.2H
With B6, the Kd in experiment [4] was ~500 nM.

B7: anti-C1s scFv 2.3L-2.2H (scFv)
scFv: DIVMTQSPLTLTVTIGQPASISCKSSQSLLDSDGKTYLNWLLQRPGQSPKRLIYLVSKLDSGVPDRFTGSGSGTEFTLKTSRVEAEDLGVYYCWQGTHFPHFGGGTKLEIKGGGGSGGGGSGGGGSGGGGSEVKLVESGGGFVKPGGSLKLSCAASGFTFSTYGMSWVRQTPEKRLEWVASISAGGTTYYSDSVKGRFTISRDNARNILYLQMSSLRSEDTAMYYCARWLLLAYWGQGTLVTSSA
notes: scFv in E. coli whole cell lysate; also called C1s-2 3L-2H
B7: the “ELISA Signal (OD450 on antigen-coated wells relative to BSA-coated wells)” value in experiment [1] amounted to 4.22 fold over BSA wells.

B8: anti-BRIGHT IgG 1.2L-1.1H (antibody, V domains shown)
VH: EVKLVESGGDLVKPGGSLKLSCAASGFTFSSYGMSWVRQTPDKRLEWVATISSGGSYTYYPDSVKGRFTISRDNAKNTLYLQMSSLKSEDTAMYYCARHDYGNYVDYWGQGTTLTVSS
VL: not shown
notes: Full-length IgG with human kappa and human IgG1 constant regions (pMAZ vectors, HEK293-F); also called BRIGHT 1.2L-1.1H
With B8, the “EC50 (half-maximal binding)” value in experiment [5] is 1000 nM.
